Measured values taken from the supplement of paper PMC11246515.
± gives the standard deviation of the averaged measurements.

Experiment: total protein half-life in vivo (active degradation + dilution); higher = more stable protein
[1] = E. coli NCM3722 delta-smpB, growth: N-lim chemostat, doubling time 6 h
[2] = wild type E. coli NCM3722, growth: C-lim chemostat, doubling time 3 h
[3] = wild type E. coli NCM3722, growth: C-lim chemostat, doubling time 6 h
[4] = wild type E. coli NCM3722, growth: C-lim chemostat, doubling time 12 h
[5] = wild type E. coli NCM3722, growth: P-lim chemostat, doubling time 6 h
[6] = wild type E. coli NCM3722, growth: P-lim chemostat, doubling time 12 h
[7] = E. coli NCM3722 delta-clpP delta-lon delta-hslV, growth: N-lim chemostat, doubling time 6 h
[8] = E. coli NCM3722 delta-clpP, growth: N-lim chemostat, doubling time 6 h
[9] = E. coli NCM3722 delta-hslV, growth: N-lim chemostat, doubling time 6 h
[10] = E. coli NCM3722 delta-lon, growth: N-lim chemostat, doubling time 6 h
[11] = wild type E. coli NCM3722, growth: N-lim chemostat, doubling time 6 h
[12] = wild type E. coli NCM3722, growth: N-lim chemostat, doubling time 12 h

In the case of “MMSKINQTDIDRLIELVGGRGNIATVSHCITRLRFVLNQPANARPKEIEQLPMVKGCFTNAGQFQVVIGTNVGDYYQALIASTGQAQVDKEQVKKAARHNMKWHEQLISHFAVIFFPLLPALISGGLILGFRNVIGDLPMSNGQTLAQMYPSLQTIYDFLWLIGEAIFFYLPVGICWSAVKKMGGTPILGIVLGVTLVSPQLMNAYLLGQQLPEVWDFGMFSIAKVGYQAQVIPALLAGLALGVIETRLKRIVPDYLYLVVVPVCSLILAVFLAHALIGPFGRMIGDGVAFAVRHLMTGSFAPIGAALFGFLYAPLVITGVHQTTLAIDLQMIQSMGGTPVWPLIALSNIAQGSAVIGIIISSRKHNEREISVPAAISAWLGVTEPAMYGINLKYRFPMLCAMIGSGLAGLLCGLNGVMANGIGVGGLPGILSIQPSYWQVFALAMAIAIIIPIVLTSFIYQRKYRLGTLDIV”, the “total protein half-life in vivo” value [1] is reported as 2.51 h, the “total protein half-life in vivo” value [2] is reported as 2.85 ± 0.2 h and the “total protein half-life in vivo” value [3] is reported as 4.23 ± 0.33 h. For the same sequence, the “total protein half-life in vivo” value [4] was 6.59 ± 0.51 h, the “total protein half-life in vivo” value [5] was 4.13 h and the “total protein half-life in vivo” value [6] was 6.92 h.
In the case of “MKTDTPSLETPQAARLRRRQLIRQLLERDKTPLAILFMAAVVGTLVGLAAVAFDKGVAWLQNQRMGALVHTADNYPLLLTVAFLCSAVLAMFGYFLVRKYAPEAGGSGIPEIEGALEDQRPVRWWRVLPVKFFGGLGTLGGGMVLGREGPTVQIGGNIGRMVLDIFRLKGDEARHTLLATGAAAGLAAAFNAPLAGILFIIEEMRPQFRYTLISIKAVFIGVIMSTIMYRIFNHEVALIDVGKLSDAPLNTLWLYLILGIIFGIFGPIFNKWVLGMQDLLHRVHGGNITKWVLMGGAIGGLCGLLGFVAPATSGGGFNLIPIATAGNFSMGMLVFIFVARVITTLLCFSSGAPGGIFAPMLALGTVLGTAFGMVAVELFPQYHLEAGTFAIAGMGALLAASIRAPLTGIILVLEMTDNYQLILPMIITGLGATLLAQFTGGKPLYSAILARTLAKQEAEQLARSKAASASENT”, the “total protein half-life in vivo” value [7] is reported as 6.2 ± 0.78 h, the “total protein half-life in vivo” value [8] is reported as 6.38 h and the “total protein half-life in vivo” value [9] is reported as 6.54 ± 0.83 h. For the same sequence, the “total protein half-life in vivo” value [10] was 6.03 h, the “total protein half-life in vivo” value [1] was 5.82 ± 0.66 h and the “total protein half-life in vivo” value [3] was 5.8 ± 0.28 h. The “total protein half-life in vivo” value [4] was 13.2 ± 3.7 h, the “total protein half-life in vivo” value [11] was 6.08 ± 0.083 h and the “total protein half-life in vivo” value [12] was 11.3 h. The “total protein half-life in vivo” value [5] was 6.1 ± 0.11 h and the “total protein half-life in vivo” value [6] was 11.3 ± 0.43 h.
In the case of “MKSKVLALLIPALLAAGAAHAAEVYNKDGNKLDLYGKVDGLHYFSDNSAKDGDQSYARLGFKGETQINDQLTGYGQWEYNIQANNTESSKNQSWTRLAFAGLKFADYGSFDYGRNYGVMYDIEGWTDMLPEFGGDSYTNADNFMTGRANGVATYRNTDFFGLVNGLNFAVQYQGNNEGASNGQEGTNNGRDVRHENGDGWGLSTTYDLGMGFSAGAAYTSSDRTNDQVNHTAAGGDKADAWTAGLKYDANNIYLATMYSETRNMTPFGDSDYAVANKTQNFEVTAQYQFDFGLRPAVSFLMSKGRDLHAAGGADNPAGVDDKDLVKYADIGATYYFNKNMSTYVDYKINLLDEDDSFYAANGISTDDIVALGLVYQF”, the “total protein half-life in vivo” value [2] is reported as 3.6 h, the “total protein half-life in vivo” value [3] is reported as 6.9 h and the “total protein half-life in vivo” value [4] is reported as 11.9 h.
In the case of “MNNNTTAPTYTLRGLQLIGWRDMQHALDYLFADGQLKQGTLVAINAEKMLTIEDNAEVRELINAAEFKYADGISVVRSVRKKYPQAQVSRVAGADLWEELMARAGKEGTPVFLVGGKPEVLAQTEAKLRNQWNVNIVGSQDGYFKPEQRQALFERIHASGAQIVTVAMGSPKQEIIMRDCRLVHPDALYMGVGGTYDVFTGHVKRAPKIWQTLGLEWLYRLLSQPSRIKRQLRLLRYLRWHYTGNL”, the “total protein half-life in vivo” value [7] is reported as 6.19 ± 0.52 h, the “total protein half-life in vivo” value [8] is reported as 6.04 ± 0.25 h and the “total protein half-life in vivo” value [9] is reported as 6.18 ± 0.083 h. For the same sequence, the “total protein half-life in vivo” value [10] was 7.03 ± 0.76 h, the “total protein half-life in vivo” value [1] was 6.88 ± 0.092 h and the “total protein half-life in vivo” value [2] was 3.045 ± 0.02 h. For the same sequence, the “total protein half-life in vivo” value [3] was 5.84 ± 0.15 h, the “total protein half-life in vivo” value [4] was 12.2 ± 1.7 h and the “total protein half-life in vivo” value [11] was 6.58 ± 0.62 h. For the same sequence, the “total protein half-life in vivo” value [12] was 12.6 ± 0.13 h, the “total protein half-life in vivo” value [5] was 5.76 ± 0.52 h and the “total protein half-life in vivo” value [6] was 13.4 ± 1.2 h.
With “MLKRKKVKPITLRDVTIIDDGKLRKAITAASLGNAMEWFDFGVYGFVAYALGKVFFPGADPSVQMVAALATFSVPFLIRPLGGLFFGMLGDKYGRQKILAITIVIMSISTFCIGLIPSYDTIGIWAPILLLICKMAQGFSVGGEYTGASIFVAEYSPDRKRGFMGSWLDFGSIAGFVLGAGVVVLISTIVGEANFLDWGWRIPFFIALPLGIIGLYLRHALEETPAFQQHVDKLEQGDREGLQDGPKVSFKEIATKYWRSLLTCIGLVIATNVTYYMLLTYMPSYLSHNLHYSEDHGVLIIIAIMIGMLFVQPVMGLLSDRFGRRPFVLLGSVALFVLAIPAFILINSNVIGLIFAGLLMLAVILNCFTGVMASTLPAMFPTHIRYSALAAAFNISVLVAGLTPTLAAWLVESSQNLMMPAYYLMVVAVVGLITGVTMKETANRPLKGATPAASDIQEAKEILVEHYDNIEQKIDDIDHEIADLQAKRTRLVQQHPRIDE [P0C0L7]” the “total protein half-life in vivo” value [7] was 5.246 ± 0.018 h, the “total protein half-life in vivo” value [8] was 4.97 ± 0.25 h and the “total protein half-life in vivo” value [9] was 4.59 ± 0.35 h. The “total protein half-life in vivo” value [10] was 4.34 ± 0.14 h, the “total protein half-life in vivo” value [1] was 5.04 ± 0.79 h and the “total protein half-life in vivo” value [3] was 4.62 ± 0.43 h. For the same sequence, the “total protein half-life in vivo” value [4] was 7.56 ± 3.2 h, the “total protein half-life in vivo” value [11] was 4.46 ± 0.41 h and the “total protein half-life in vivo” value [12] was 10.4 ± 2.3 h. The “total protein half-life in vivo” value [5] was 4.78 ± 0.066 h and the “total protein half-life in vivo” value [6] was 7.9 ± 0.16 h.
With “MPIYQIDGLTPVVPEESFVHPTAVLIGDVILGKGVYVGPNASLRGDFGRIVVKDGANIQDNCVMHGFPEQDTVVGEDGHIGHSAILHGCIIRRNALVGMNAVVMDGAVIGENSIVGASAFVKAKAEMPANYLIVGSPAKAIRELSEQELAWKKQGTHEYQVLVTRCKQTLHQVEPLREIEPGRKRLVFDENLRPKQ” the “total protein half-life in vivo” value [7] was 5.05 ± 0.96 h, the “total protein half-life in vivo” value [8] was 4.12 ± 0.18 h and the “total protein half-life in vivo” value [9] was 4.15 ± 0.16 h. The “total protein half-life in vivo” value [10] was 5.43 ± 0.8 h, the “total protein half-life in vivo” value [1] was 3.9 ± 0.21 h and the “total protein half-life in vivo” value [2] was 3.49 ± 0.39 h. For the same sequence, the “total protein half-life in vivo” value [4] was 11.6 ± 2.7 h, the “total protein half-life in vivo” value [11] was 4.19 ± 0.87 h and the “total protein half-life in vivo” value [12] was 6.81 h. The “total protein half-life in vivo” value [5] was 5.81 ± 0.34 h and the “total protein half-life in vivo” value [6] was 12.9 ± 0.92 h.
With “MKKRHLLSLLALGISTACYGETYPAPIGPSQSDFGGVGLLQTPTARMAREGELSLNYRDNDQYRYYSASVQLFPWLETTLRYTDVRTRQYSSVEAFSGDQTYKDKAFDLKLRLWEESYWLPQVAVGARDIGGTGLFDAEYLVASKAWGPFDFTLGLGWGYLGTSGNVKNPLCSASDKYCYRDNSYKQAGSIDGSQMFHGPASLFGGVEYQTPWQPLRLKLEYEGNNYQQDFAGKLEQKSKFNVGAIYRVTDWADVNLSYERGNTFMFGVTLRTNFNDLRPSYNDNARPQYQPQPQDAILQHSVVANQLTLLKYNAGLADPQIQAKGDTLYVTGEQVKYRDSREGIIRANRIVMNDLPDGIKTIRITENRLNMPQVTTETDVASLKNHLAGEPLGHETTLAQKRVEPVVPQSTEQGWYIDKSRFDFHIDPVLNQSVGGPENFYMYQLGVMGTADLWLTDHLLTTGSLFANLANNYDKFNYTNPPQDSHLPRVRTHVREYVQNDVYVNNLQANYFQHLGNGFYGQVYGGYLETMFGGAGAEVLYRPLDSNWAFGLDANYVKQRDWRSAKDMMKFTDYSVKTGHLTAYWTPSFAQDVLVKASVGQYLAGDKGGTLEIAKRFDSGVVVGGYATITNVSKEEYGEGDFTKGVYVSVPLDLFSSGPTRSRAAIGWTPLTRDGGQQLGRKFQLYDMTSDRSVNFR” the “total protein half-life in vivo” value [7] was 5.44 h, the “total protein half-life in vivo” value [10] was 6.75 ± 0.42 h and the “total protein half-life in vivo” value [1] was 5.88 ± 0.37 h. The “total protein half-life in vivo” value [4] was 12.6 h and the “total protein half-life in vivo” value [12] was 11.6 h.
